Laboratory results taken from paper PMC5388391.

Experiments:
[1] = target: T1, Nan-KLF1 zinc finger domain (mouse (murine), Nan mutant, UniProt P46099 243-358, E321D); assay: EMSA
[2] = target: T1, Nan-KLF1 zinc finger domain; assay: fluorescence polarization
[3] = target: T2, KLF1 zinc finger domain (WT) (mouse (murine), UniProt P46099 243-358); assay: fluorescence polarization
[4] = target: T2, KLF1 zinc finger domain (WT); assay: EMSA

T2 sequence (P46099 243-358): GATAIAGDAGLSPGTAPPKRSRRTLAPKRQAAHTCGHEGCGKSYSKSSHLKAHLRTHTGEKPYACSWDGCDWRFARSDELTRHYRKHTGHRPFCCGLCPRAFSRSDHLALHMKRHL
T1 sequence (P46099 243-358 E321D): as the sequence (P46099 243-358) above, with E79D counted along it

B1: Alas2 variant 2 (CT), EMSA (dsDNA)
DNA 1: TCTCTCCCAAGCCCTGGGCTC
DNA 2: GAGCCCAGGGCTTGGGAGAGA
[1]
  binding result: binds

B2: Alas2_fp (CG) (dsDNA)
DNA 1: TTCTCTCCCACGCCCTGGGCTC
DNA 2: GAGCCCAGGGCGTGGGAGAGA
modifications: 5' fluorescein-dT (/5FluorT/) preceding S51, written as T
[2]
  Kd: 130 nM
[3]
  Kd: 150 nM

B3: Alas2 variant 3 (AG), EMSA (dsDNA)
DNA 1: TCTCTCCCACTCCCTGGGCTC
DNA 2: GAGCCCAGGGAGTGGGAGAGA
[1]
  binding result: binds

B4: beta-globin (Hbb promoter, Category II, TG) (dsDNA)
DNA 1: TAGAGCCACACCCTGGTAAG
DNA 2: CTTACCAGGGTGTGGCTCTA
[4]
  binding result: binds

B5: Alas2 (Category I, CG), EMSA (dsDNA)
DNA 1: TCTCTCCCACGCCCTGGGCTC
DNA 2: GAGCCCAGGGCGTGGGAGAGA
[1]
  binding result: binds
[4]
  binding result: binds

B6: Alas2 variant 1 (CA), EMSA (dsDNA)
DNA 1: TCTCTCCCATGCCCTGGGCTC
DNA 2: GAGCCCAGGGCATGGGAGAGA
[1]
  binding result: binds
